Test results taken from patent US20240132603A1 (HARBOUR BIOMED US, published 2024).
Like-named read-outs stand apart in the source and are kept apart here.

What was measured:
[1] = target: T1, human CCR8 (human, UniProt P51685 1-355); assay: FACS, CHO-K1-hCCR8 cells
T1 construct: whole, on cells; construct used for the overexpressing cell lines is not described; also called hCCR8
Protocol: (§1) Cells overexpressing human CCR8 were digested with pancreatin, counted and resuspended to a cell density of 1E6 cells/mL. The cell suspension was added to a 96-well V-bottom plate at 100 μL/well and centrifuged at 300 g for 5 min, and the supernatant was discarded. The anti-CCR8 antibodies provided herein was used as a primary antibody and diluted in a 5-fold gradient with an FACS buffer (DPBS containing 2% FBS) from 200 nM. The diluted primary antibody was added at 100 μL/well to resuspend the cells, and the mixture was incubated at 4° C. for 1 h. The plate was washed twice with DPBS and centrifuged at 300×g for 5 min, and the supernatant was discarded. The secondary antibody diluted in a 1:1000 ratio with an FACS buffer was added at 100 μL/well to suspend the cells, and the mixture was incubated at 4° C. for 40 min. The plate was washed twice with DPBS and centrifuged at 300×g for 5 min, and the supernatant was discarded. DPBS was added at 200 μL/well to suspend the cells, and the mixture was loaded on an FACS machine for analysis.

[2] = target: T2, cynomolgus monkey CCR8 (cynomolgus monkey, UniProt G7NYJ2 1-355); assay: FACS, CHO-K1-CynoCCR8 cells
T2 construct: whole, on cells; also called CynoCCR8
Protocol: as §1, with “cynomolgus monkey CCR8, CHO-K1-CynoCCR8,” for “human CCR8”

[3] = target: T1, human CCR8; assay: FACS, CHO-K1-hCCR8 cells; remark: listed apart in the source
Protocol: as §1

[4] = target: T2, cynomolgus monkey CCR8; assay: FACS, CHO-K1-CynoCCR8 cells; remark: listed apart in the source
Protocol: as §1, with “cynomolgus monkey CCR8, CHO-K1-CynoCCR8,” for “human CCR8”

[5] = target: T1, human CCR8; assay: FACS, Baf3-hCCR8 cells
Protocol: as §1

[6] = target: T1, human CCR8; assay: FACS, HEK293-hCCR8 cells
Protocol: as §1

T2 sequence (G7NYJ2 entry or part of it): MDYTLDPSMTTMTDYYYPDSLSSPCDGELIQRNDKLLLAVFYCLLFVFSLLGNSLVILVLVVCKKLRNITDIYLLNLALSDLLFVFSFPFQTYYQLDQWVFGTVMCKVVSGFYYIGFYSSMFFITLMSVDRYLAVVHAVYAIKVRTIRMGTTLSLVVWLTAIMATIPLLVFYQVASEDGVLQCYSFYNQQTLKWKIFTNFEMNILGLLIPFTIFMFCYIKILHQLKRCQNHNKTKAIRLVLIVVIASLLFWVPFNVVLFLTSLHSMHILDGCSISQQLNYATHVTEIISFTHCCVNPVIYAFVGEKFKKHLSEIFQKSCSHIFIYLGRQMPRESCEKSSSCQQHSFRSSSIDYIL
T1 sequence (P51685 whole entry): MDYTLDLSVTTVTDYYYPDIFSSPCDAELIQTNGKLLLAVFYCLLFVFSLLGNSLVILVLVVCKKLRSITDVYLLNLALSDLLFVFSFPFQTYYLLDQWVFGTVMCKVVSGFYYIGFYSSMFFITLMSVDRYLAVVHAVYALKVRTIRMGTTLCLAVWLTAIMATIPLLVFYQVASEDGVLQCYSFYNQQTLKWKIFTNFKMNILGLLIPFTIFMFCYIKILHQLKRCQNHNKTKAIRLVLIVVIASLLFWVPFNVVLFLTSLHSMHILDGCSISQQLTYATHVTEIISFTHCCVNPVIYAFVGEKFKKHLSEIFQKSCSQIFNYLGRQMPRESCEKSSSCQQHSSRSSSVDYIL

| EC50 [1] [nM] | EC50 [2] [nM] | EC50 [3] [nM] | EC50 [4] [nM] | EC50 [5] [nM] | EC50 [6] [nM] | Binder |
| --- | --- | --- | --- | --- | --- | --- |
| 0.67 | 4.17 |  |  |  |  | PR004519 (antibody, human IgG1, kappa, V domains shown, humanized variant of PR004128, IgG1 with DE mutation) VH: EVQLVESGGGLVKPGGSLRLSCAASGFTFNTYAMNWVRQAPGKGLEWVGRIRSKSNNYATYYADSVKDRFTISRDDSKSTLYLQMNSLKTEDTAVYYCVRGKENGNYYAMDFWGQGTTVTVSS VL: DIVMTQSPLSLPVTPGEPASISCRSSKSLLHSNGKIYLYWFLQKPGQSPQLLIYRMSNLASGVPDRFSGSGSGTDFTLKISRVEAEDVGVYYCMQHLEYPLTFGQGTKLEIKR |
| 0.37 | 6.22 |  |  |  |  | PR004521 (antibody, human IgG1, kappa, V domains shown, humanized variant of PR004128, IgG1 with DE mutation) VH: EVQLVESGGGLVQPGGSLKLSCAASGFTFNTYAMNWVRQASGKGLEWVGRIRSKSNNYATYYADSVKDRFTISRDDSKSTLYLQMNSLKTEDTAVYYCVRGKENGNYYAMDFWGQGTTVTVSS VL: DIVMTQSPLSLPVTPGEPASISCRSSKSLLHSNGKIYLYWFLQKPGQSPQLLIYRMSNLASGVPDRFSGSGSGTDFTLKISRVEAEDVGVYYCMQHLEYPLTFGQGTKLEIKR |
| 1.08 | 5.87 |  |  |  |  | PR004522 (antibody, human IgG1, kappa, V domains shown, humanized variant of PR004128, IgG1 with DE mutation) VH: EVQLVESGGGLVKPGGSLRLSCAASGFTFNTYAMNWVRQAPGKGLEWVGRIRSKSNNYATYYADSVKDRFTISRDDSKSTLYLQMNSLKTEDTAVYYCVRGKENGNYYAMDFWGQGTTVTVSS VL: DIVMTQSPLSLPVTPGEPASISCRSSKSLLHSNGNTYLYWFLQKPGQSPQLLIYRMSNLASGVPDRFSGSGSGTDFTLKISRVEAEDVGVYYCMQHLEYPLTFGQGTKLEIKR |
|  | 1.61 | 0.72 |  |  |  | PR004669 (antibody, human IgG1, kappa, humanized; same VH/VL as PR004525, other heavy chain entry) heavy: not shown light: DIVMTQSPLSLPVTLGQPASISCRSSKSLLHSNGKIYLYWFQQRPGQSPRLLIYRMSNLASGVPDRFSGSGSGTDFTLKISRVEAEDVGVYYCMQHLEYPLTFGQGTKLEIKRTVAAPSVFIFPPSDEQLKSGTASVVCLLNNFYPREAKVQWKVDNALQSGNSQESVTEQDSKDSTYSLSSTLTLSKADYEKHKVYACEVTHQGLSSPVTKSFNRGEC |
| 1.31 | 4.6 |  |  |  |  | PR004520 (antibody, human IgG1, kappa, humanized variant of PR004128, IgG1 with DE mutation) heavy: not shown light: DIVMTQSPLSLPVTPGEPASISCRSSKSLLHSNGKIYLYWFLQKPGQSPQLLIYRMSNLASGVPDRFSGSGSGTDFTLKISRVEAEDVGVYYCMQHLEYPLTFGQGTKLEIKRTVAAPSVFIFPPSDEQLKSGTASVVCLLNNFYPREAKVQWKVDNALQSGNSQESVTEQDSKDSTYSLSSTLTLSKADYEKHKVYACEVTHQGLSSPVTKSFNRGEC |
|  |  | 0.38 | 0.43 |  |  | PR006161 (antibody, human IgG1, kappa, V domains shown) VH: EVQLVESGGGLVKPGGSLRLSCAASGFTFSTYAMNWVRQAPGKGLEWVGRIRSKSNYYATYYADSVKDRFTISRDDSKSTLYLQMNSLKTEDTAVYYCVRGKEHGKYYAMDFWGQGTTVTVSS VL: DIVMTQSPLSLPVTLGQPASISCRSSKSLLHSNAKIYLYWFQQRPGQSPRLLIYRMSNLASGVPDRFSGSGSGTDFTLKISRVEAEDVGVYYCMQHLEYPLTFGQGTKLEIKR |
|  |  | 0.73 | 0.42 |  |  | PR006157 (antibody, human IgG1, kappa, V domains shown) VH: EVQLVESGGGLVKPGGSLRLSCAASGFTFSTYAMNWVRQAPGKGLEWVGRIRSKSNYYATYYADSVKDRFTISRDDSKSTLYLQMNSLKTEDTAVYYCVRGKEIGNYYAMDFWGQGTTVTVSS VL: DIVMTQSPLSLPVTLGQPASISCRSSKSLLHSNAKIYLYWFQQRPGQSPRLLIYRMSNLASGVPDRFSGSGSGTDFTLKISRVEAEDVGVYYCMQHLEYPLTFGQGTKLEIKR |
|  |  | 0.38 | 0.3 |  |  | PR006156 (antibody, human IgG1, kappa, V domains shown) VH: EVQLVESGGGLVKPGGSLRLSCAASGFTFSTYAMNWVRQAPGKGLEWVGRIRSKSNNYATYYADSVKDRFTISRDDSKSTLYLQMNSLKTEDTAVYYCVRGKEIGNYYAMDFWGQGTTVTVSS VL: DIVMTQSPLSLPVTLGQPASISCRSSKSLLHSNAKIYLYWFQQRPGQSPRLLIYRMSNLASGVPDRFSGSGSGTDFTLKISRVEAEDVGVYYCMQHLEYPLTFGQGTKLEIKR |
| 1 | 4.42 |  |  |  |  | PR004523 (antibody, human IgG1, kappa, V domains shown, humanized variant of PR004128, IgG1 with DE mutation) VH: EVQLVESGGGLVQPGGSLRLSCAASGFTFNTYAMNWVRQAPGKGLEWVSRIRSKSNNYATYYADSVKDRFTISRDDSKSTLYLQMNSLRAEDTAVYYCVRGKENGNYYAMDFWGQGTTVTVSS VL: DIVMTQSPLSLPVTPGEPASISCRSSKSLLHSNGNTYLYWFLQKPGQSPQLLIYRMSNLASGVPDRFSGSGSGTDFTLKISRVEAEDVGVYYCMQHLEYPLTFGQGTKLEIKR |
|  |  | 0.54 |  | 0.24 | 1.1 | PR004120 (antibody, human IgG1, kappa, V domains shown, chimeric, human IgG1 constant region) VH: EVQLVESGGGLVQPKGSLKLSCAASGFTFNTNAMNWVRQAPGKGLEWVARIRSKMNNYATYYADSVKDRFTISRDDSQNMLYLQMNNLKTEDTAMYYCVRGKENGNYYAMDFWGQGTSVTVSA VL: DIVMTQAATSVLVTPGESVSISCRSSKSLLYSNGNTYLYWFLQRPGQSPQLLIYRMSNLASGVPDRFSGSGSGTAFTLRISRVEAEDVGVYYCMQHLEYPFTFGGGTKLEIKR |
|  |  | 0.45 |  | 0.17 | 0.58 | PR004124 (antibody, human IgG1, kappa, V domains shown, chimeric, human IgG1 constant region) VH: EVKVEESGGGLVQPGGSMKLSCAASGFTFNTYAMNWVRQAPGKGLEWVARIRSKSNNYATYYADSVKDRFTISRDDSQSMLYLQMNNLKTEDTAMYYCVRGKDYGNYYAMDFWGQGTSLTVSS VL: DIVMTQDELSNPVTSGESVSISCRSSKSLLHSNGNTYLYWFLQRPGQSPQLLIYRMSNLASGVPDRFSGSGSGTAFTLRISRVEAEDVGVYYCMQHLEYPFTFGGGTKLELKR |
|  |  | 0.25 |  | 0.06 | 0.34 | PR004129 (antibody, human IgG1, kappa, V domains shown, chimeric, human IgG1 constant region) VH: EVQLVESGGGLVQPKGSLKLSCAASGFTFNTYAMNWVRQAPGKGLEWVARIRSKSNNYATYYADSVKDRFTISRDDSQSMLYLQMNNLKTEDTAMYYCVRGKDYGNYYAMDYWGQGTSVTVSS VL: DILLTQSPAILSVSPGERVSFSCRSSKSLLHSNGNTYLYWFLQRPGQSPQLLIYRMSNLASGVPDRFSGSGSGTAFTLRISRVEAEDVGVYYCMQHLEYPFTFGSGTKLEINR |
|  |  | 0.56 |  | 0.26 | 0.86 | PR004127 (antibody, human IgG1, kappa, V domains shown, chimeric, human IgG1 constant region) VH: EVQLVETGGGLVQPKGSLKLSCAASGFTFNTNAMNWVRQAPGKGLEWVARIRSKSNNYATYYADSVKDRFTISRDDSQNMLYLQMNNLKTEDTAMYYCVRGKENGNYYAMDFWGQGTSVTVSS VL: DIVMTQAATSVLVTPGESVSISCRSSKSLLYSNGNTYLYWFLQRPGQSPQLLIYRMSNLASGVPDRFSGSGSGTAFTLRISRVEAEDVGVYYCMQHLEYPFTFGGGTKLEMKR |
|  |  | 0.46 |  | 0.2 | 0.8 | PR004130 (antibody, human IgG1, kappa, V domains shown, chimeric, human IgG1 constant region) VH: EVQLVESGGGLVQFKGSLKLSCGTSGFTFNTYAMNWVRQAPGKGLEWVARIRSKSNNYATFYADSVKDRFTISRDDSQNMLYLQMNNLKTEDTAMYYCVRGKENGNYYAMDFWGQGTSVTVSS VL: DIVMTQAAPSVPVTPGESVSISCRSSKSLLHSNGNTYLYWFLQRPGQSPQLLIYRMSNLASGVPDRFSGSGSGTAFTLRISRVEAEDVGVYYCMQHLEYPFTFGSGTKLEIKR |
|  |  | 0.46 |  | 0.2 | 0.62 | PR004123 (antibody, human IgG1, kappa, V domains shown, chimeric, human IgG1 constant region) VH: EVQLVESGGGLVQPKGSLKLSCAASEFTFNTYAMNWVRQAPGKGLEWVARIRTKSNNFATYYADSVKDRFTISRDDSQSMLFLQMNNLKTEDTAMYYCVRGKENGNYYAMDFWGQGTSVTVSA VL: DIVMTQAAPSVPVTPGESVSISCRSSKSLLHSNGNTYLYWFLQRPGQSPQLLIYRMSNLASGVPDRFSGSGSGTAFTLRISRVEAEDVGVYYCMQHLEYPFTFGGGTKLELKR |
|  |  | 0.43 |  | 0.18 | 0.58 | PR004126 (antibody, human IgG1, kappa, V domains shown, chimeric, human IgG1 constant region) VH: EVQLVESGGGLVQPKGSLKLSCAASGFTFSTNAMNWVRQAPGKGLEWVGRIRSKSNNYATYYADSVKDRFTISRDDSQSMLYLQMNNLKTEDTAMYYCVRGKENGNYYAMDFWGQGTSVTVSA VL: DIVITQAAPSVPVTPGESVSISCRSSKSLLHSNGNTYLYWFLQRPGQSPQLLIYRMSNLASGVPDRFSGSGSGTAFTLRISRVEAEDVGVYYCMQHLEYPFTFGAGTKLELKR |
